Data on 3 molecules can be found in PMC6402988 (Nature structural & molecular biology, 2019).

In test [1] the target is SUDV GP ectodomain (Sudan ebolavirus; strain not named for …, UniProt Q66814). The test is described as follows: ELISA. A general note: In an ELISA, binding on a coated surface is turned into a signal by an enzyme label.
Test [2] deals with rVSV-EBOV GP (wild type) (Zaire ebolavirus (EBOV), UniProt Q05320). Briefly: ELISA.

Changes are numbered by the printed parent chain.

B1: ADI-15946 mutant Y100AA (antibody, V domains shown)
VH: EVQLVESGGGLVKPGGSLRLSCAASGFTFSNAWMSWVRQAPGKGLEWVGRIKSKTDGGTIDYAAPVKGRFTISRDDSKNTVYLQMTSLKTEDTAVYYCTTYTEDMRAFDWLLRGGETFDYWGQGTLVTVSS
VL: DIRLTQSPSSLSASVGDRVTITCRASHYISTYLNWYQQKPGKAPKLLIYAASNLQSGVPSRFSGSGFGTDFSLTISSLQPEDFATYHCQQSYSTPGRYTFGQGTKVEIK
For B1, the binding result in test [1] is on record as “binds”.

B2: ADI-15946 IgG (antibody, V domains shown)
VH: B1 VH with A107Y
VL: B1 VL
B2: the binding result in test [1] and in test [2] was “binds” in each case.

B3: 46M1 (antibody, V domains shown)
VH: B1 VH with R106A, A107Y
VL: B1 VL
Turning to B3, in test [1], the binding result is listed as “binds”.
